Results: publication PMC3708853

How the values were obtained:
[1] = molecular target: CD47 on Jurkat T cells (human (endogenous in Jurkat)) (UniProt Q08722)
[2] = molecular target: wild-type CD47 re-expressed in CD47-deficient JinB8 T cells (UniProt Q08722)

Row | Substance | reduction of CD69 mRNA expression (real-time PCR) in Jurkat T cells activated by anti-CD3 antibody for 2 hours, BAD-1 10 µg/ml; no block in CD47-deficient JinB8 T cells [1] [%] | inhibition of CD69 induction (mRNA, real-time PCR) in anti-CD3-activated JinB8 cells transfected with wild-type CD47 [2] [%] | reduction of CD69 mRNA expression (real-time PCR) in Jurkat T cells activated by anti-CD3 antibody for 2 hours, TSP-1 10 µg/ml; no inhibition in CD47-deficient JinB8 T cells [1] [%]
1 | Blastomyces adhesin-1 (BAD-1), native protein purified from B. dermatitidis yeast (natural protein) | 65 | 34.9 | –
2 | recombinant thrombospondin-1 (TSP-1) (from UniProt P07996 19-1170) (natural protein) | – | 35.1 | 45
